The values below come from paper PMC6760140 (2019).

Where two headings read alike, the source gives them in different places.

Assay in all cases: BLI
Assay [1] concerns the target T1, Recombinant His-tagged Pfs25 (Plasmodium falciparum, UniProt P13829 17-196).
For assay [2], the target named is T1, Recombinant His-tagged Pfs25. The source holds these as a separate data set.
Assay [3] shares this target. This is another data set of the same source.

B1: 2586 Fab (Fab, V domains shown)
VH: EVHLVESGGGLVQPGGSLRLSCAASGFTFSDHYMDWVRQAPGKGLEWVGRIRNKANSYTTDYAASVKGRFTILRDDSKNSLYLQMNSLKTEDAAVYYCVRVGGLGERGDYYYYYMDVWGKGTTVTVSS
VL: SYELTQPPSVSFSPGQTARITCSGDALSKQYTYWYQQKPGQAPVLVIYKDSERPSGIPERFSGSSSGTTVTLTISGVQAEDEADYYCQSADSSGPYQVLFGGGTKLTVL
Consider B1, for which, in assay [1], the koff is 0.00037 s⁻¹. For the same molecule, the Kd in assay [2] amounted to 2.5 nM.

B2: 2587 Fab (Fab, V domains shown)
VH: QVQLVQSGAEVRKPGASVKVSCKASGYSFTSYILNWVRQATGQGLEWMGWMNPDSNNTEYAQKFQGRVTITRDTSISTVYMELSGLRSEDTAVYYCARHSFKSNTGFDYWGQGTQVTVSS
VL: SYELSQPPSVSVSAGQTASITCSGDKLGGKYGYWYQQRPGQSPILVIYQDSKRPSGIPERFSGSNSGNTATLTISGTQAMDEADYYCQAWDISTNWVFGGGTKLTVL
As to B2, the koff in assay [1] turned out to be 0.0007 s⁻¹. The Kd in assay [3] is 4.6 nM.

B3: 2530 Fab (Fab, V domains shown)
VH: QVQLQESGPGLVKPSETLSLTCTVSGDSMSSYYWSWIRQPAGKGLEWIGRISTSGSTNYNPSLKSRVTMSVDTSNNHFSMRLNSVTAADTAVYYCACSGSYSFFDYWGQGTLVTVSS
VL: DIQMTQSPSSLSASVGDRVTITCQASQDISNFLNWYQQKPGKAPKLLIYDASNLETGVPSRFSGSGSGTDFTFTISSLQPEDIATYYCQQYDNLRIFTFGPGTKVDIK
As for B3, in assay [1], the koff came to 0.0062 s⁻¹. Besides, in assay [2], the Kd came to 19.2 nM.

B4: 2544 Fab (Fab, V domains shown)
VH: EVQLVESGGGLVQPGGSLRLSCVASGFTFSNYNMNWVRQAPGKGLEWLSYISSSSGTIYYADSVKGRFTISRDNAKNSMYLQMNSLRAEDTAVYYCVRVEYYYGSSGYYYDFDSWGQGTLVTVSS
VL: DIVMTQSPLSLPVTPGEPASISCRSSQSLLHNGYNYLDWYLQKPGQSPQLLIYLGSNRASGVPDRFSGSGSGTDFTLKISRVEAEDVGVYYCMQTLQPFTFGQGTRLEIK
In the case of B4, the koff in assay [1] turned out to be 0.00075 s⁻¹.
